Data on 19 sequences can be found in a protein production outcome set (Wang et al. 2014).

The series is described as follows: label from the status in PepcDB records.

Consider “MKSLETMARYKKELTECARNLKLPFLAEHLDEILHEAQEKQQTYSEFLSTCLMRELRDKERRSYLTRLKFAGLPARYDLDLYDFSRTEGIDQRQMRELRELVWIRRTYNLLLVGDSGTGKTFIASGLIHEAVKAGYKAYLLTLEELFVCLKTKEISRPAMKTYKRIMKAQLLAIDDVTLFPLKGEDVLLLFKLVNCVQGKTSLIITASRDLTGWLEMAGDEVCAAALLDRLLYCCEIIRLSGKSYRMENRKTIFSNQQIGTASLEHHHHHH”, for which the protein production result was “failed”.
“MKSLLMRTGSMPVLQNRLISGGSSRKMTPISRTNSVESLSSYGERFAGGKISIEVKANVGMRRVLSESDVIRSERMLKRVGSKPSPARIPEDDEAGEEEIRFADGWGSMISGGLPVEEKCFTGGGVGGGSGYSGGYGNGGGGGYEDKSKIGDYYREMLRSNPNNSLLLMNYGKFLYEVEKDAEGAEEYYGRAILENPGDGEALSMYGRLIWETKRDEKRAQGYFDQAVNASPNDCMVLGSYARFMWEAEDDDDDDEEEEEEEWMAASPLMVSAV”: the protein production entry is given as “failed”.
In the case of “MKSNDTSFRRYLCSASPRLRPALLAMLTVVLLAGCATADKHGLSPQQRSASDLADSEEIDPAARERISHALGRDADEGALRDALKQQPNNIDAAIPLARALLARNCPNDALEVLDGVLLATPGDLRALNAKAVVLDHEGRHQEAQELYRQALAAEPANPMLRNNFGLSLALQGKMDAGDASAAPQAGSRKALARSR”, the protein production result is “failed”.
Turning to “MKSNLFMKRKLEIGLSLLIGTSVFGGCNNDLAPIRQSQTFPPNLNAPTVFESFSPDSGGVKTQLIIRGQNFGTDTAYLKVTVNNKRAAIVGVADDVIYAIVPARADTGYVRLFVGKDDNVEEYASQTKFIYQFKRNVTTLMGRQGQSGRDDGPYAECKLQRPWFALADKDGALFFIDEGRGQNKNGALRRAQEGWVETLVQNSSGPFQSPTCLAFNPKQDTLYISNMSYGSDIKTSFNILYVTREGGFMDVKGLCKFEKAETQGLAVHPQTGEIFFCNKSGGYIYRFNGPDYEDYEPLFQINRADKIDTRMVFNPEGTALFVVVCNRHCIYKVPYNALTHTFGEPELFAGGWDESGYVNGSGVTARFDNPRQPAFDQDGNMFVPEYGRHTIRKITPTGEVSLYAGLPGQAGFTDGLPEKARFNKPECVTVYLDNSLYVADRDNHLIRRVTVE”, the protein production result is “failed”.
As to “MKSRTRWLTSEELVTLFEAMRQAPGFSVENGLSIKLLLLLAVRKGELIGARWSEFDLDKAVWYLPAERTKTESAIDIPLPPIAVEWLRELQRLAGVSKWVLPARKMQDRMIPHIAESTLSVALAKIKHGLEPFTIHDLRRTARTHFEALGVAPHIAERCLNHKIKGIEGIYNRHDYFEERKAALEAWAGLLLQIERGEADKVVPIRRAVATKQLEHHHHHH”, the protein production entry was “failed”.
“MKSSDIDQDLFTDSYCKVCSAQLISESQRVAHYESRKHASKVRLYYMLHPRDGGCPAKRLRSENGSDADMVDKNKCCTLCNMSFTSAVVADSHYQGKIHAKRLKLLLGEKTPLKTTGLRRNYRCAICSVSLNSIEQYHAHLKGSKHQTNLKNK”: the protein production entry is listed as “failed”.
For “MKSTAEDLINGEISSVGVYLYNKLKNYVFEKESSEKTAIRKADFGKIIEEKTDLEEFPAVSKEDIKAICEILYNSKDIEIIIKQLYVFQSDINKSLDEIKEDFVSLFPKTINLENGRINLETGERISFLLKIFEVLDEGIQTALNRAVDEGSSGASNALSNRRHFDMKNKLANGFKEVKKLINESSRAVQEKKIPTEKLPSLFISYAREDDEPFVEKLYQGLKEKGFEIWWDRTAMKNRGRTFLQEIRDAIEDSDLLIAVIGPKAIESDSVRYEWEHALLFSKGVIPVLRMGDYNLLLPEMSKLHCPDFREKRPYEEALEELIRLLKEPIPSLGPIIGIPSLPPNHLPRKNDLNIIKEIILADTVKPVVITSTKQVTALQGMGGMGKSVLSAAFARSAETRRAFYDGIFWITVGLEASESDASGNMRLIGTNLGDDPVNYSSKKEAEASLSKMLSDKVCLIILDDVWKVPQATPFFNALGSRCRLLITTRNDDVVTSLGAQKHEIKVLGKPEALKLLANWCEQEIDSLTSKAAEVARECGYLPLALSICGAMAKSGISWTYILEALQEADLEFIEAQLPNYPDPNVGRALKVSVDFLSLEDPNAVMRYQELVIFPEDELVPETTIAMLWEHTGNLKRRNVEKLLTKLKDRSLLRLDGEAPNRLISLHDLQLDYLRATVGDLTSLHNKLLAAYGKECGNKWSNGSEDGYFFEHLAYHMKEAGRREELHKLLLDFEWMCKKIKCVRLMQEKDGKGIPDLNSLLHDYEFLSNEPKIELVKEAIQLSFDIIAKDEAQFSGQLIGRLQVFNQNEEIRLLLDQATQWKEEDVRLIPLQPCLKPPGGSLKRTFKAHAHPINDVVITSNGKVAISASTDKTIRIWDLNEWIEKGTLKGHLTPVTAIAVSLDGKYAASCSYHIMCLIGDNNIKVWDLEKREEKTTLKGHTHWVQTVAITPDGKYIVSGSLDKTIKFGI”, the protein production entry was “failed”.
With “MKSTLIDNFTLLLWASLMASSFVVSEQLLPYANPIASTALRFILATILMMPFIGRASIKQLNYKILLRYSVISLFLVLFFIGLFEALKTTNAMRTSVIYTLLPLISVVLTYIGLKFVTPNKQIAGFLIGTLGAIWVLVAFTQGKLVLIEWRLGDSIFLVACCCLALHVILIKKWATDVPPMLGAFYIMLLGSLILLPFLIFFGDLNNIAWHEDEFWKVLLYLTLFTTIATFFLQQHLLKKVGPNRLLGFTYLIPSIVLIPQGLANMSQLYSVVPGIMLTFLALYLISPKHQ”, the protein production entry was “failed”.
Turning to “MKSVAGGLLRIGMRHDHDMTNRRLDAVILAGGCAHRLGGVAKANLRVGTRRLLDVVLDAVDGAREGLEGSNVVVARESVEVPWSVIRTMEDPPGSGPLAGIRAGLQALPPAQPDDLVLVCAVDSPGIGRSIRQLREALEDDPLNHFAGAVTFGGVPKPHRQLLQGLYRRVPLEASIAAADTVVNRSVHSVLGGLCLLDLPVEPEACRDLDTPGDVEWWLRHIGD”, the protein production entry was “failed”.
Take “MKSVGQALENQGRVPRNTNDELIQMILADAQVAEFIKTHQLSQREINISMSKFNQFLIERQKFKNKDSQYIAKGYEPILVMNEGYADVSYLETRELIEAQKKQAISDRINLVNLPKSYRNIRMTDFDINNESRMKAMSQLLDFVETYPSYNHKGLYLYGDMGVGKSYLMAAMARELSERKGVSTTLLHFPSFAIDVKNAISSGTVKDEIDAVKSVPILILDDIGAEQATSWVRDEILQVILQHRMLEELPTFFTSNYSFNDLERKWANIKGSDETWQAKRVMERVRYLAIEFHLEGPNRR”: the protein production result is “failed”.
Under “MKSYLVGGAVRDALLGQPAGDCDWVVVGADPAHMKSLGFKPVGRDFPVFLHPKTGEEFALARTERKNGHGYRGFIVNADPTVTLEQDLQRRDFTINAIARDQTNGTLIDPYGGVNDLEQRVLRHISPAFAEDPLRVLRAARFMARLAPLGFSIAPETLAMMRQMAANGELNSLIPERIWKELSRSLTYTQPAAFLHTLRTVNALEVVLPELNALYGVPQHADYHPEIDTGLHQELVSDIAAKLAPGDMLIGFAALCHDLGKALTPRATWPHHPMHEQRGMAPTQQLSERLKVPRNYQQLALIACREHLNVHRLSKLHDNTVYELLQRCDAFRRPERIAQLAIVCEADYRGRYGHEDANYPQGQHLCRLHAAALAINARDLNRQDLHGTQIGEALAQARIRAISSAGVYDGGTGTNF” stands “failed”; under “MKTAWLLLLLLGVGALGGCAVNPATGKSDFVMMSEQQELGMGARYNQEILKQFPRYNDEKLQAYVQRVGERVARSSHRSNLQYHFTVIDSPDINAFALPGGYIYIHRGLIAYLGSEAELAAVLGHEVGHVTARHSVRQQSQASAWNILGQAVAIGTGVGAAGDLANVLGTAFVRGYGRDMELEADGLGAQYLARAGYDPTAMIQVVRVLKNQEDFAREEAARNGQAVQAGGYHGLFDTHPDNDRRLQEVVGPARQLANGQQEVGREVFLRHLEGMPFGDSASAGVRRGQNFYHAELDFTLSYPAGWKILNQPSALLGYPADEQSFIGMKLVPHDSRLTPAEFLRKNAGQRLAQEESLKQAGLNGYTAVVPGNPARRVAVIYQGDRAYLFVGVVKVGSLETQDDRFLSVIRSFRPLRDKERALAQPRRLHLVQVKAGQTLEQLAAGGEGSLSDSVARLRLLNDLYPSGEPRPGDWLKVVR”, “failed”.
As to “MKTFKKGVILDAKSVGLKALEVLKEVADFDFYEVTPPSQIVERSIEAEIMVLNKVVITQEVLSQLPKLKLICITATGTDNVDIKSAKALGIEVKNVSAYSTESVAQHTLACALSLLGRINDYDRYCKSGEYSQSDLFTHISDIKMGLIKGSQWGVIGLGTIGKRVAKLAQAFGAKVVYYSPKDKKEEYERLSLKDLLATSDIISIHAPLNESTRDLIALKELQSLKDGAILINVGRGGIVNEKDLAEILETKDLYYASDVFVKEPFEKDHAFLNPKIQNKLLLTPHIAWAYSDSLKTLVEKTKENIQDFLASQK”, the protein production entry was “failed”.
Turning to “MKTGKELKPGTVLRIDNDPWLVQKAEFTKSGRNSAIMKTKLKNLLTGYKTETVYGADDKLDDVILDRKEATLSFINGDEYTFMDTTDYTMYELNAEDIEAVLPYIEEGMEDVCEAVFFEGRLVSVELPTTISRKVVYTENAARGDTSGKVMKPAKLANGTEISVADFIQIDEWIDIDTRDNSFKGRSKKLEHHHHHH”, the protein production result is listed as “not failed”.
In the case of “MKTIKDWQINICLATYNGQKYLRQQLDSIIQQGYTDWICLIRDDGSTDDTVAIIKEYVNRDSRFIFINSNDDRKLGSHRSFYELVNYKKADFYVFSDQDDVWKENRLERYLEEAEKFNQELPLLVYSNWTSVDEKLTVLKEHNPATVIQEQIAFNQINGMVIMMNHELAKLWEYRQIGAHDSYVGTLAYAVGNVAYISDSTVLWRRQVGAESLNNYGRQYGVATFWQMINTSFDRASLIFAQVSDKMSLERKLFFSRFIELKNANLMRRIYLLSKLKLRRKSLKETVAMTILLLTGYGKPKALEHHHHHH”, the protein production entry is on record as “not failed”.
For the sequence “MKTITQELKQYMTHLFQLSNNEAWECEALEEAAENILPERFINDSPLVQLTLETYTYYNDELHELSIYPFLMYANNQLISIGYLDHFDMDFLYLTDTQNIIIDERHLLKQGGQDHELEHHHHHH”, the protein production result was “not failed”.
Turning to “MKTIVIEDKQRIESIILQADACFVGITDLEGNPYVVPMNFGYENDTLYLHSGPEGGKIEMLQRNNNVCITFSLGHKLVYQHKQVACSYSMRSESAMCRGKVEFIEDMEEKRHALDIIMRHYTKDQFSYSDPAVRNVKVWKVPVDQMTGKVFGLRADEKP”, the protein production result is on record as “not failed”.
With “MKTKIAYEEVAGMLNQWYVMIKRHEVSQAVSIKCDIEHQLPNMEENQDLLLYFNLLDYRHKLLTEEFAASNKLFEDIQEQKADMQSTDDMIEYYYFFFAGMYEFHKKDYTNAINYYKLAEEKLRTIPDQIEIAEFHYKLAIAYYQIKQNFLSLNHAKTALKTFKAHDDYIQKAISNDMLIGANKLDLFRFDEAEQHYKQALKDAALIKHHVLLGMAHHNLGLSYVNRNLLTLAEHHFKEALLIKEHEESVYGIHSMFELTHVLYKSNVVKEARKLYEKGFFRAEKAGEREYLSKFKLIHALYDEQDPLTVEHALEYLKTINLWTDVAELTFDIALYYKENGDADKAAEYFEESHHARDQILKRTEELK”, the protein production result is “failed”.
On to “MKTKQTDELLAKDEQYVWHGMRPFSPNSTMVGAKAEGCWVEDIQGKRYLDGMSGLWCVNSGYGRKELAEAAYKQLQTLSYFPMSQSHEPAIKLAEKLNEWLGGEYVIFFSNSGSEANETAFKIARQYYAQKGEPHRYKFMSRYRGYHGNTMATMAATGQAQRRYQYEPFASGFLHVTPPDCYRMPGIERENIYDVECVKEVDRVMTWELSETIAAFIMEPIITGGGILMPPQDYMKAVHETCQKHGALLISDEVICGFGRTGKAFGFMNYDVKPDIITMAKGITSAYLPLSATAVKREIYEAFKGKGEYEFFRHINTFGGNPAACALALKNLEIIENENLIERSAQMGSLLLEQLKEEIGEHPLVGDIRGKGLLVGIELVNDKETKEPIDNDKIASVVNACKEKGLIIGRNGMTTAGYNNILTLAPPLVISSEEIAFVIGTLKTAMERI”, for which the protein production result is given as “failed”.
